# From patent US20180208675A1 (Novo Nordisk, published 2018)
# Assays:
# [1] = target: T1, human TFPI alpha (full-length TFPIα) (human, UniProt P10646 29-304); assay: SPR (Biacore T200), Fab-Fab conjugate captured on Human Fab Binder, TFPIα in solution, 1:1 fit
# T1 construct: Analyte in SPR and added to plasma (2 or 20 nM) in thrombin generation assays; also called human TFPIα
# Source text: (§1) Binding interaction analysis was obtained by Surface Plasmon Resonance in a Biacore T200 instrument. Human Fab Binder (Human Fab Capture Kit, GE Healthcare) was immobilized to a series S CM4 sensor chip (GE Healthcare) in flow-cells 1-4 at 10000 response units (RU) using the amine coupling protocol available within the Biacore T-200 control software (GE Healthcare) and the reagents provided with the Amine Coupling Kit (GE Healthcare).The relevant Fab fragment or Fab-Fab conjugate was captured in flow-cell 2, 3 or 4 at a fixed concentration. Different concentrations of TFPI were tested by diluting TFPI in the running buffer (10 mM Hepes, pH 7.4, 300 mM NaCl, 5 mM CaCl₂, 0.05% Surfactant P20, 1 mg/ml BSA). Each sample was assayed using 300 seconds of contact time followed by 600 seconds of dissociation time at 50 μl/min flow rate. A buffer blank was also assayed. The sensor surface was regenerated with 10 mM Glycine pH 2.1 with two cycles each of 30 seconds at 50 μl/min flow rate.
# (§2) Biacore T200 Evaluation software was used to analyse the data. Determination of binding constants (kₒₙ, koff, KD) was obtained assuming a 1:1 interaction of TFPI and the Fab variant or Fab-Fab conjugate of interest.
# [2] = target: T1, human TFPI alpha (full-length TFPIα); assay: SPR (Biacore T200), Fab captured on Human Fab Binder, TFPIα in solution, 1:1 fit
# Source text: as §1, §2
# [3] = target: endogenous TFPI of normal human plasma (human, UniProt P10646 29-304, limits assumed); assay: cell-based or functional assay
# [4] = target: T1, human TFPI alpha (full-length TFPIα); assay: cell-based or functional assay
# [5] = target: T1, human TFPI alpha (full-length TFPIα); assay: SPR (Biacore T200), Fab captured on Human Fab Binder, TFPIα in solution, 1:1 fit; remark: listed apart in the source
# Source text: as §1, §2
binder,measurement,setting,value
"Fab 0094-Fab 0089 conjugate 9004 (bispecific antibody, C-terminal cysteine coupled through the bis-maleimide linker to the Fab 0094 heavy chain; C-terminal cysteine coupled through 1,16-N,N'-bis(maleimido)-4,13-diaza-7,10-dioxa-3,14-dioxohexadecane to the C-terminal cysteine of the Fab 0089 heavy chain, KPI-2/KPI-3) heavy 1: EVQLVESGGGLVKPGGSLRLSCAASGFTFSNYAMSWVRQAPGKGLEWVSTISRSGSYSYYPDSVKGRFTISRDNAKNSLYLQMNSLRAEDTAVYYCARLGGYDEGDAMDSWGQGTTVTVSSASTKGPSVFPLAPCSRSTSESTAALGCLVKDYFPEPVTVSWNSGALTSGVHTFPAVLQSSGLYSLSSVVTVPSSSLGTKTYTCNVDHKPSNTKVDKRVESKYGPPC light 1: DIVMTQTPLSLSVTPGQPASISCKSSQSLLESDGKTYLNWYLQKPGQSPQLLIYLVSILDSGVPDRFSGSGSGTDFTLKISRVEAEDVGVYYCLQATHFPQTFGGGTKVEIKRTVAAPSVFIFPPSDEQLKSGTASVVCLLNNFYPREAKVQWKVDNALQSGNSQESVTEQDSKDSTYSLSSTLTLSKADYEKHKVYACEVTHQGLSSPVTKSFNRGEC heavy 2: QVQLQQSGAELVKPGASVKLSCKASGYTFISYYMYWVKQRPGQGLEWIGEINPSNGDTNLNEKFKSKATLTVDKSSSTVYMQLSSLTSEDSAVYYCTRWDRFDGFVYWGQGTLVTVSAASTKGPSVFPLAPCSRSTSESTAALGCLVKDYFPEPVTVSWNSGALTSGVHTFPAVLQSSGLYSLSSVVTVPSSSLGTKTYTCNVDHKPSNTKVDKRVESKYGPPC light 2: ETTVTQSPASLSMAIGGKVTIRCIISTNIDDDINWYQQKPGEPPKLLISEGNTLRPGVPSRFSSSGYGTDFVFTIENMLSEDVADYYCLQSDDLPYTFGGGTKLEIKRTVAAPSVFIFPPSDEQLKSGTASVVCLLNNFYPREAKVQWKVDNALQSGNSQESVTEQDSKDSTYSLSSTLTLSKADYEKHKVYACEVTHQGLSSPVTKSFNRGEC",Kd,[1],0.036 nM
same,koff,[1],0.00022 s⁻¹
same,kon,[1],6.2e+06 M⁻¹ s⁻¹
"Fab 0095-Fab 0089 conjugate 9005 (bispecific antibody, C-terminal cysteine coupled through the bis-maleimide linker to the Fab 0095 heavy chain; C-terminal cysteine coupled through 1,16-N,N'-bis(maleimido)-4,13-diaza-7,10-dioxa-3,14-dioxohexadecane to the C-terminal cysteine of the Fab 0089 heavy chain, KPI-2/KPI-3; also called Fab 0095-Fab 0089 (9005)) heavy 1: EVQLVESGGGLVKPGGSLRLSCAASGFTFSNYAMSWVRQAPGKGLEWVSTISRSGSYSYYADSVKGRFTISRDNAKNSLYLQMNSLRAEDTAVYYCARLGGYDEGDAMDSWGQGTTVTVSSASTKGPSVFPLAPCSRSTSESTAALGCLVKDYFPEPVTVSWNSGALTSGVHTFPAVLQSSGLYSLSSVVTVPSSSLGTKTYTCNVDHKPSNTKVDKRVESKYGPPC light 1: DIVMTQTPLSLSVTPGQPASISCKSSQSLLESDGKTYLNWLLQRPGESPKLLIYLVSILDSGVPDRFSGSGSGTDFTLKISRVEAEDVGVYYCLQATHFPQTFGGGTKVEIKRTVAAPSVFIFPPSDEQLKSGTASVVCLLNNFYPREAKVQWKVDNALQSGNSQESVTEQDSKDSTYSLSSTLTLSKADYEKHKVYACEVTHQGLSSPVTKSFNRGEC heavy 2: QVQLQQSGAELVKPGASVKLSCKASGYTFISYYMYWVKQRPGQGLEWIGEINPSNGDTNLNEKFKSKATLTVDKSSSTVYMQLSSLTSEDSAVYYCTRWDRFDGFVYWGQGTLVTVSAASTKGPSVFPLAPCSRSTSESTAALGCLVKDYFPEPVTVSWNSGALTSGVHTFPAVLQSSGLYSLSSVVTVPSSSLGTKTYTCNVDHKPSNTKVDKRVESKYGPPC light 2: ETTVTQSPASLSMAIGGKVTIRCIISTNIDDDINWYQQKPGEPPKLLISEGNTLRPGVPSRFSSSGYGTDFVFTIENMLSEDVADYYCLQSDDLPYTFGGGTKLEIKRTVAAPSVFIFPPSDEQLKSGTASVVCLLNNFYPREAKVQWKVDNALQSGNSQESVTEQDSKDSTYSLSSTLTLSKADYEKHKVYACEVTHQGLSSPVTKSFNRGEC",Kd,[1],0.038 nM
same,koff,[1],0.00023 s⁻¹
same,kon,[1],6.1e+06 M⁻¹ s⁻¹
"Fab 0088-Fab 0089 conjugate 9002 (bispecific antibody, C-terminal cysteine coupled through the bis-maleimide linker to the Fab 0088 heavy chain; C-terminal cysteine coupled through 1,16-N,N'-bis(maleimido)-4,13-diaza-7,10-dioxa-3,14-dioxohexadecane to the C-terminal cysteine of the Fab 0089 heavy chain, KPI-2/KPI-3) heavy 1: EVQLVESGGGLVKPGGSLRLSCAASGFTFSNYAMSWVRQTPEKRLEWVATISRSGSYSYFPDSVQGRFTISRDNAKNSLYLQMNSLRAEDTAVYYCARLGGYDEGDAMDSWGQGTTVTVSSASTKGPSVFPLAPCSRSTSESTAALGCLVKDYFPEPVTVSWNSGALTSGVHTFPAVLQSSGLYSLSSVVTVPSSSLGTKTYTCNVDHKPSNTKVDKRVESKYGPPC light 1: DIVMTQTPLSLSVTPGQPASISCKSSQSLLESDGKTYLNWYLQKPGQSPQLLIYLVSILDSGVPDRFSGSGSGTDFTLKISRVEAEDVGVYYCLQATHFPQTFGGGTKVEIKRTVAAPSVFIFPPSDEQLKSGTASVVCLLNNFYPREAKVQWKVDNALQSGNSQESVTEQDSKDSTYSLSSTLTLSKADYEKHKVYACEVTHQGLSSPVTKSFNRGEC heavy 2: QVQLQQSGAELVKPGASVKLSCKASGYTFISYYMYWVKQRPGQGLEWIGEINPSNGDTNLNEKFKSKATLTVDKSSSTVYMQLSSLTSEDSAVYYCTRWDRFDGFVYWGQGTLVTVSAASTKGPSVFPLAPCSRSTSESTAALGCLVKDYFPEPVTVSWNSGALTSGVHTFPAVLQSSGLYSLSSVVTVPSSSLGTKTYTCNVDHKPSNTKVDKRVESKYGPPC light 2: ETTVTQSPASLSMAIGGKVTIRCIISTNIDDDINWYQQKPGEPPKLLISEGNTLRPGVPSRFSSSGYGTDFVFTIENMLSEDVADYYCLQSDDLPYTFGGGTKLEIKRTVAAPSVFIFPPSDEQLKSGTASVVCLLNNFYPREAKVQWKVDNALQSGNSQESVTEQDSKDSTYSLSSTLTLSKADYEKHKVYACEVTHQGLSSPVTKSFNRGEC",Kd,[1],0.0053 nM
same,koff,[1],3.8e-05 s⁻¹
same,kon,[1],7.1e+06 M⁻¹ s⁻¹
"Fab 0313-Fab 0089 conjugate 9031 (bispecific antibody, C-terminal cysteine coupled through the bis(acetyl)ethylene diamine linker to the Fab 0313 heavy chain; C-terminal cysteine coupled through bis(bromoacetyl)ethylene diamine to the C-terminal cysteine of the Fab 0089 heavy chain, KPI-2/KPI-3; also called Fab 0313-FAb 0089 (9031)) heavy 1: EVQLVESGGGLVKPGGSLRLSCAASGFTFSNYAMSWVRQAPGKGLEWVSTISRSGSYSYYADSVKGRFTISRDNAKNSLYLQMNSLRAEDTAVYYCARLGGYDEGDAMDSWGQGTTVTVSSASTKGPSVFPLAPCSRSTSESTAALGCLVKDYFPEPVTVSWNSGALTSGVHTFPAVLQSSGLYSLSSVVTVPSSSLGTKTYTCNVDHKPSNTKVDKRVESKYGPPC light 1: DIVMTQTPLSLSVTPGQPASISCKSSQSLLESDGKTYLNWYLQKPGQSPQLLIYLVSILDSGVPDRFSGSGSGTDFTLKISRVEAEDVGVYYCLQATHFPQTFGGGTKVEIKRTVAAPSVFIFPPSDEQLKSGTASVVCLLNNFYPREAKVQWKVDNALQSGNSQESVTEQDSKDSTYSLSSTLTLSKADYEKHKVYACEVTHQGLSSPVTKSFNRGEC heavy 2: QVQLQQSGAELVKPGASVKLSCKASGYTFISYYMYWVKQRPGQGLEWIGEINPSNGDTNLNEKFKSKATLTVDKSSSTVYMQLSSLTSEDSAVYYCTRWDRFDGFVYWGQGTLVTVSAASTKGPSVFPLAPCSRSTSESTAALGCLVKDYFPEPVTVSWNSGALTSGVHTFPAVLQSSGLYSLSSVVTVPSSSLGTKTYTCNVDHKPSNTKVDKRVESKYGPPC light 2: ETTVTQSPASLSMAIGGKVTIRCIISTNIDDDINWYQQKPGEPPKLLISEGNTLRPGVPSRFSSSGYGTDFVFTIENMLSEDVADYYCLQSDDLPYTFGGGTKLEIKRTVAAPSVFIFPPSDEQLKSGTASVVCLLNNFYPREAKVQWKVDNALQSGNSQESVTEQDSKDSTYSLSSTLTLSKADYEKHKVYACEVTHQGLSSPVTKSFNRGEC",Kd,[1],0.17 nM
same,koff,[1],0.0067 s⁻¹
same,kon,[1],4e+07 M⁻¹ s⁻¹
"Fab 2F22 (Fab, V domains shown, KPI-1 specific; HC truncated after the hinge cysteine; also called Fab fragment 2F22; extended Fab 2F22 (Fab for chemical coupling)) VH: QVQLKQSGPGLVQPSQSLSITCTVSGFSLTNYGVHWVRQSPGKGLEWLAVIWRGGSIDYNAAFMSRLSITKDNSKSQVFFKMNSLQADDTAIYYCAKNSHGNYVGYAMDYWGQGTSVTVSS VL: GIVMTQSQKFMSTTVGDRVSITCKASQSVGPAVAWYQQKPGQSPKLLIYSASNRYTGVPDRFTGSGSGADFTLTISNLHSEDLADYFCQQYTSYPTFGGGTKLEIKR",Kd,[2],1.7 nM
"Fab 0088 (Fab fragment of mAb 2021) (Fab, V domains shown, free C-terminal cysteine; KPI-2 specific) VH: EVQLVESGGGLVKPGGSLRLSCAASGFTFSNYAMSWVRQTPEKRLEWVATISRSGSYSYFPDSVQGRFTISRDNAKNSLYLQMNSLRAEDTAVYYCARLGGYDEGDAMDSWGQGTTVTVSS VL: DIVMTQTPLSLSVTPGQPASISCKSSQSLLESDGKTYLNWYLQKPGQSPQLLIYLVSILDSGVPDRFSGSGSGTDFTLKISRVEAEDVGVYYCLQATHFPQTFGGGTKVEIKR","thrombin peak (nM) at 6.25 nM, FVIII-neutralised plasma, endogenous TFPI",[3],96.8 nM
same,"thrombin peak (nM) at 12.5 nM, FVIII-neutralised plasma, endogenous TFPI",[3],98.1 nM
same,"thrombin peak (nM) at 25.0 nM, FVIII-neutralised plasma, endogenous TFPI",[3],102 nM
same,"thrombin peak (nM) at 50.0 nM, FVIII-neutralised plasma, endogenous TFPI",[3],101 nM
same,"thrombin peak (nM) at 100 nM, FVIII-neutralised plasma, endogenous TFPI",[3],87.7 nM
same,"thrombin peak (nM) at 6.25 nM, FVIII-neutralised plasma + 2 nM TFPIα",[4],38.4 nM
same,"thrombin peak (nM) at 12.5 nM, FVIII-neutralised plasma + 2 nM TFPIα",[4],64.2 nM
same,"thrombin peak (nM) at 25.0 nM, FVIII-neutralised plasma + 2 nM TFPIα",[4],69.8 nM
same,"thrombin peak (nM) at 50.0 nM, FVIII-neutralised plasma + 2 nM TFPIα",[4],67.7 nM
same,"thrombin peak (nM) at 100 nM, FVIII-neutralised plasma + 2 nM TFPIα",[4],48.1 nM
same,Kd,[5],0.06 nM
same,koff,[5],0.0001 s⁻¹
same,kon,[5],1.7e+06 M⁻¹ s⁻¹
"Fab 0095 (Fab fragment of mAb 2014) (Fab, V domains shown, KPI-2 specific) VH: EVQLVESGGGLVKPGGSLRLSCAASGFTFSNYAMSWVRQAPGKGLEWVSTISRSGSYSYYADSVKGRFTISRDNAKNSLYLQMNSLRAEDTAVYYCARLGGYDEGDAMDSWGQGTTVTVSS VL: DIVMTQTPLSLSVTPGQPASISCKSSQSLLESDGKTYLNWLLQRPGESPKLLIYLVSILDSGVPDRFSGSGSGTDFTLKISRVEAEDVGVYYCLQATHFPQTFGGGTKVEIKR","thrombin peak (nM) at 6.25 nM, FVIII-neutralised plasma, endogenous TFPI",[3],74.2 nM
same,"thrombin peak (nM) at 12.5 nM, FVIII-neutralised plasma, endogenous TFPI",[3],81.3 nM
same,"thrombin peak (nM) at 25.0 nM, FVIII-neutralised plasma, endogenous TFPI",[3],84.9 nM
same,"thrombin peak (nM) at 50.0 nM, FVIII-neutralised plasma, endogenous TFPI",[3],85.4 nM
same,"thrombin peak (nM) at 100 nM, FVIII-neutralised plasma, endogenous TFPI",[3],84.7 nM
same,"thrombin peak (nM) at 6.25 nM, FVIII-neutralised plasma + 2 nM TFPIα",[4],13.3 nM
same,"thrombin peak (nM) at 12.5 nM, FVIII-neutralised plasma + 2 nM TFPIα",[4],19.4 nM
same,"thrombin peak (nM) at 25.0 nM, FVIII-neutralised plasma + 2 nM TFPIα",[4],22.4 nM
same,"thrombin peak (nM) at 50.0 nM, FVIII-neutralised plasma + 2 nM TFPIα",[4],25.1 nM
same,"thrombin peak (nM) at 100 nM, FVIII-neutralised plasma + 2 nM TFPIα",[4],24.6 nM
same,Kd,[5],0.78 nM
same,koff,[5],0.003 s⁻¹
same,kon,[5],3.9e+06 M⁻¹ s⁻¹
